Among the data in patent US20040009897A1 are % Inhibition values, retold here.

Assay [1] addresses human recombinant soluble CD4 (human) (UniProt P01730). As to the kind of experiment: competitive ELISA on rsCD4; competitor mAb B4-HRP; unlabelled mAb B4 at 2.0 µg/mL, positive control run with week 17 sera.
The target is the same in assay [2]. As to the kind of experiment: competitive ELISA on rsCD4; competitor mAb B4-HRP; unlabelled mAb B4 at 2.0 µg/mL, positive control run with week 11 sera.
For assay [3] the target is unchanged. As to the kind of experiment: competitive ELISA on rsCD4; competitor mAb B4-HRP; unlabelled mAb B4 at 2.0 µg/mL, positive control run with week 9 sera. Background: In an ELISA, binding on a coated surface is turned into a signal by an enzyme label.
Assay [4] has the same target. As to the kind of experiment: competitive ELISA on rsCD4; competitor mAb B4-HRP; unlabelled mAb B4 at 20 µg/mL, positive control run with week 11 sera.
Assay [5] shares this target. As to the kind of experiment: competitive ELISA on rsCD4; competitor mAb B4-HRP; unlabelled mAb B4 at 20 µg/mL, positive control run with week 9 sera.
Assay [6] shares this target. As to the kind of experiment: competitive ELISA on rsCD4; competitor mAb B4-HRP; unlabelled mAb B4 at 20 µg/mL, positive control run with week 17 sera.

As usually defined, the % Inhibition is the drop in the measured response relative to a control, in per cent. On to “mAb B4 (anti-binding site monoclonal antibody), unlabelled, purified”, for which the % Inhibition amounted to 11.7% in assay [1]; 11.7% in assay [2]; 23.5% in assay [3]; 63% in assay [4]; 63% in assay [5]; 48.7% in assay [6].
